In paper doi:10.1101/2023.11.06.565731:
pKd: −log10 of the molar value.

Key:
[1] = biological target: mouse α-synuclein pre-formed fibrils (mouse) (UniProt O55042); test: other fluorescence titration
[2] = biological target: mouse α-synuclein type B* oligomers (mouse) (UniProt O55042); test: other fluorescence titration

What does the source list for “BODIPY630/650-labelled PSMα3 peptide probe P1”?
pKd [1]: 5.85; fold increase of the emission peak intensity [1]: 16 fold; fold increase of the excitation peak intensity [1]: 7.6 fold; fold increase of the emission peak intensity [2]: 3 fold; fold increase of the excitation peak intensity [2]: 1.8 fold
